{
  "source": "patent US20230090771A1",
  "about": "(REGENTS OF THE UNIVERSITY OF MINNESOTA, published 2023)",
  "key": {"[1]": {"target": "T1, his6-SonA, split borosin precursor SonA (Shewanella oneidensis) with N-terminal hexa-histidine tag, co-expressed with SonM", "T1 chain": "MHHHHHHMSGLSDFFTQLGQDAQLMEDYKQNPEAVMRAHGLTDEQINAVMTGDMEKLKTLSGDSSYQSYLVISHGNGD"}, "[2]": {"target": "T2, his6-SonA, split borosin precursor SonA (Shewanella oneidensis) with N-terminal hexa-histidine tag, … (Shewanella oneidensis, alpha-N-methylations on L63 and I65 (the vast majority purified in the 2-alpha-N-methylated state))", "T2 construct": "This complex was used for crystallisation; also called WP_011071666", "T2 chain": "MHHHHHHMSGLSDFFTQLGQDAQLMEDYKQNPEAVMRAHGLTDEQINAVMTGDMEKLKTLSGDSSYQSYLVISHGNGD", "assay": "co-purification of untagged SonM with his6-SonA by nickel affinity and size exclusion chromatography, SDS-PAGE"}, "[3]": {"target": "T3, his6-SonA (Shewanella oneidensis), expressed alone as substrate for kinetics", "T3 chain": "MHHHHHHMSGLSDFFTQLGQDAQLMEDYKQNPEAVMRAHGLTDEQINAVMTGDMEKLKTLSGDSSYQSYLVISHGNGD"}},
  "data": [
    {"binder": "split borosin alpha-N-methyltransferase SonM (Shewanella oneidensis), untagged, co-expressed with his6-SonA (enzyme, also called WP_011071665) MGSLVCVGTGLQLAGQISVLSRSYIEHADIVFSLLPDGFSQRWLTKLNPNVINLQQFYAQNGEVKNRRDTYEQMVNAILDAVRAGKKTVCALYGHPGVFACVSHMAITRAKAEGFSAKMEPGISAEACLWADLGIDPGNSGHQSFEASQFMFFNHVPDPTTHLLLWQIAIAGEHTLTQFHTSSDRLQILVEQLNQWYPLDHEVVIYEAANLPIQAPRIERLPLANLPQAHLMPISTLLIPPAKKLEYNYAILAKLGIGPEDLG", "values": [
      {"measurement": "MS1 alpha-N-methylation profile of SonA co-purified with SonM", "setting": "[1]", "result": "the vast majority of SonA is purified as the 2-alpha-N-methylated state"},
      {"measurement": "binding result", "setting": "[2]", "result": "binds"}
    ]},
    {"binder": "his6-SonM wild type (Shewanella oneidensis), expressed alone for kinetics (protein) MHHHHHHSSMGSLVCVGTGLQLAGQISVLSRSYIEHADIVFSLLPDGFSQRWLTKLNPNVINLQQFYAQNGEVKNRRDTYEQMVNAILDAVRAGKKTVCALYGHPGVFACVSHMAITRAKAEGFSAKMEPGISAEACLWADLGIDPGNSGHQSFEASQFMFFNHVPDPTTHLLLWQIAIAGEHTLTQFHTSSDRLQILVEQLNQWYPLDHEVVIYEAANLPIQAPRIERLPLANLPQAHLMPISTLLIPPAKKLEYNYAILAKLGIGPEDLG", "values": [
      {"measurement": "substrate turnover (coupled-enzyme Michaelis-Menten kinetics)", "setting": "[3]", "result": "SonM wild type (WT) and several active-site mutants reveal multiple SonA substrate turnover"}
    ]},
    {"binder": "SonM mutant Y93F (protein) MHHHHHHSSMGSLVCVGTGLQLAGQISVLSRSYIEHADIVFSLLPDGFSQRWLTKLNPNVINLQQFYAQNGEVKNRRDTYEQMVNAILDAVRAGKKTVCALFGHPGVFACVSHMAITRAKAEGFSAKMEPGISAEACLWADLGIDPGNSGHQSFEASQFMFFNHVPDPTTHLLLWQIAIAGEHTLTQFHTSSDRLQILVEQLNQWYPLDHEVVIYEAANLPIQAPRIERLPLANLPQAHLMPISTLLIPPAKKLEYNYAILAKLGIGPEDLG", "values": [
      {"measurement": "substrate turnover (coupled-enzyme Michaelis-Menten kinetics)", "setting": "[3]", "result": "SonM wild type (WT) and several active-site mutants reveal multiple SonA substrate turnover"}
    ]},
    {"binder": "SonM mutant Y71F (protein) MHHHHHHSSMGSLVCVGTGLQLAGQISVLSRSYIEHADIVFSLLPDGFSQRWLTKLNPNVINLQQFYAQNGEVKNRRDTFEQMVNAILDAVRAGKKTVCALYGHPGVFACVSHMAITRAKAEGFSAKMEPGISAEACLWADLGIDPGNSGHQSFEASQFMFFNHVPDPTTHLLLWQIAIAGEHTLTQFHTSSDRLQILVEQLNQWYPLDHEVVIYEAANLPIQAPRIERLPLANLPQAHLMPISTLLIPPAKKLEYNYAILAKLGIGPEDLG", "values": [
      {"measurement": "substrate turnover (coupled-enzyme Michaelis-Menten kinetics)", "setting": "[3]", "result": "SonM wild type (WT) and several active-site mutants reveal multiple SonA substrate turnover"}
    ]},
    {"binder": "SonM mutant R67K (protein) MHHHHHHSSMGSLVCVGTGLQLAGQISVLSRSYIEHADIVFSLLPDGFSQRWLTKLNPNVINLQQFYAQNGEVKNKRDTYEQMVNAILDAVRAGKKTVCALYGHPGVFACVSHMAITRAKAEGFSAKMEPGISAEACLWADLGIDPGNSGHQSFEASQFMFFNHVPDPTTHLLLWQIAIAGEHTLTQFHTSSDRLQILVEQLNQWYPLDHEVVIYEAANLPIQAPRIERLPLANLPQAHLMPISTLLIPPAKKLEYNYAILAKLGIGPEDLG", "values": [
      {"measurement": "substrate turnover (coupled-enzyme Michaelis-Menten kinetics)", "setting": "[3]", "result": "SonM wild type (WT) and several active-site mutants reveal multiple SonA substrate turnover"}
    ]},
    {"binder": "SonM mutant Y58F (protein) MHHHHHHSSMGSLVCVGTGLQLAGQISVLSRSYIEHADIVFSLLPDGFSQRWLTKLNPNVINLQQFFAQNGEVKNRRDTYEQMVNAILDAVRAGKKTVCALYGHPGVFACVSHMAITRAKAEGFSAKMEPGISAEACLWADLGIDPGNSGHQSFEASQFMFFNHVPDPTTHLLLWQIAIAGEHTLTQFHTSSDRLQILVEQLNQWYPLDHEVVIYEAANLPIQAPRIERLPLANLPQAHLMPISTLLIPPAKKLEYNYAILAKLGIGPEDLG", "values": [
      {"measurement": "substrate turnover (coupled-enzyme Michaelis-Menten kinetics)", "setting": "[3]", "result": "SonM wild type (WT) and several active-site mutants reveal multiple SonA substrate turnover"}
    ]}
  ]
}
